Tests used:
[1] = molecular target: TRBC1 polypeptide (form not stated, target of the affinity printed for scFv C1) (UniProt P01850 1-149, limits assumed); assay: not stated; column head 'Affinity' in the table of scFv sequences
[2] = molecular target: T1, TRBC2 (T cell receptor β chain constant region 2) on HPB-ALL cells (human, UniProt A0A5B9 1-178); assay: flow cytometry on HPB-ALL cells (express TRBC2)
T1 construct: whole, on cells; This is the constant region of the TCR β chain carried by the cell's own rearranged TCR; also called TRBC2 polypeptide
T1 sequence (A0A5B9 whole entry): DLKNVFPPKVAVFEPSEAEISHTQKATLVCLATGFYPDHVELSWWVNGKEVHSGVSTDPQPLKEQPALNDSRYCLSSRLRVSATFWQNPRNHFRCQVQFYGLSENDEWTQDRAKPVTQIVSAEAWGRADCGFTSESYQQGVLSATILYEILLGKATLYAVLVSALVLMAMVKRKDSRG

[3] = molecular target: T2, TRBC1 (T cell receptor β chain constant region 1) on Jurkat cells and TRBC1^+ healthy human T cells (human, UniProt P01850 1-176); assay: flow cytometry on Jurkat cells and healthy human T cells
T2 construct: whole, on cells; This is the constant region of the TCR β chain carried by the cell's own rearranged TCR; The rest of the TCR is not specified; also called TRBC1 polypeptide
T2 sequence (P01850 whole entry): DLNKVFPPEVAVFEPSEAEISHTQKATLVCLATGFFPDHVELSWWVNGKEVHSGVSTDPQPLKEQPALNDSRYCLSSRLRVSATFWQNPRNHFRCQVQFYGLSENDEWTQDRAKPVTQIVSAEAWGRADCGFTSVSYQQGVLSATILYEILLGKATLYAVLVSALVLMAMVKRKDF

[4] = molecular target: CD3 polypeptide (form not stated, target of the affinity printed for scFv UCHT1.v9) (UniProt P07766 23-126); assay: not stated; column head 'Affinity' in the table of scFv sequences
Sequence of CD3 polypeptide (form not stated, target of the affinity printed for scFv UCHT1.v9) (P07766 23-126): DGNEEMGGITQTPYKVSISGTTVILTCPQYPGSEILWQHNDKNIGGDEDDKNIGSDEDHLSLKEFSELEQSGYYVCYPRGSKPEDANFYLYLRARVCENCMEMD

Sequence of TRBC1 polypeptide (form not stated, target of the affinity printed for scFv C1) (P01850 1-149 limits assumed): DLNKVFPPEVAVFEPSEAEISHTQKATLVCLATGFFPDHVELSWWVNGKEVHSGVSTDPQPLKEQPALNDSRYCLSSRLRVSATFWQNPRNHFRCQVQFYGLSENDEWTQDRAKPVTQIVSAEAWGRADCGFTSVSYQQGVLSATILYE

B1: anti-TRBC1 scFv C1 (Jovi-1) (scFv, V domains shown)
VH: EVRLQQSGPDLIKPGASVKMSCKASGYTFTGYVMHWVKQRPGQGLEWIGFINPYNDDIQSNERFRGKATLTSDKSSTTAYMELSSLTSEDSAVYYCARGAGYNFDGAYRFFDFWGQGTTLTVSS
VL: DVVMTQSPLSLPVSLGDQASISCRSSQRLVHSNGNTYLHWYLQKPGQSPKLLIYRVSNRFPGVPDRFSGSGSGTDFTLKISRVEAEDLGIYFCSQSTHVPYTFGGGTKLEIKR
notes: also called αTRBC1 scFv
[1]
  Kd: 0.4 nM

B2: TRBC1-TRBC1 #4 bispecific antibody (bispecific antibody, V domains shown)
VH: EVRLQQSGPDLIKPGASVKMSCKASGYTFTGYVMHWVKQRPGQGLEWIGFINPYNDDIQSNERFRGKATLTSDKSSTTAYMELSSLTSEDSAVYYCARGAGYNFDGAYRFFDFWGQGTTLTVSS
VL: DVVMTQSPLSLPVSLGDQASISCRSSQRLVHSNGNTYLHWYLQKPGQSPKLLIYRVSNRFPGVPDRFSGSGSGTDFTLKISRVEAEDLGIYFCSQSTHVPYTFGGGTKLEIKR
notes: A single polypeptide made by linking two anti-TRBC1 scFvs, with G4S and (G4S)3 linkers and a poly-histidine tail; also called anti-C1 #4
[2]
  binding result: no binding

B3: TRBC1-CD3 bispecific antibody (bispecific antibody, V domains shown)
VL 1: DVVMTQSPLSLPVSLGDQASISCRSSQRLVHSNGNTYLHWYLQKPGQSPKLLIYRVSNRFPGVPDRFSGSGSGTDFTLKISRVEAEDLGIYFCSQSTHVPYTFGGGTKLEIKR
VH 1: EVRLQQSGPDLIKPGASVKMSCKASGYTFTGYVMHWVKQRPGQGLEWIGFINPYNDDIQSNERFRGKATLTSDKSSTTAYMELSSLTSEDSAVYYCARGAGYNFDGAYRFFDFWGQGTTLTVSS
VL 2: DIQMTQSPSSLSASVGDRVTITCRASQDIRNYLNWYQQKPGKAPKLLIYYTSRLESGVPSRFSGSGSGTDYTLTISSLQPEDFATYYCQQGNTLPWTFGQGTKVEIK
VH 2: EVQLVESGGGLVQPGGSLRLSCAASGYSFTGYTMNWVRQAPGKGLEWVALINPYKGVSTYNQKFKDRFTISVDKSKNTAYLQMNSLRAEDTAVYYCARSGYYGDSDWYFDVWGQGTLVTVSS
notes: It was nickel purified, so a His tag is implied; also called αC1-CD3; anti-C1-CD3
[3]
  binding result: binds

B4: TRBC1-TRBC1 #3 bispecific antibody (bispecific antibody, V domains shown)
VH: EVRLQQSGPDLIKPGASVKMSCKASGYTFTGYVMHWVKQRPGQGLEWIGFINPYNDDIQSNERFRGKATLTSDKSSTTAYMELSSLTSEDSAVYYCARGAGYNFDGAYRFFDFWGQGTTLTVSS
VL: DVVMTQSPLSLPVSLGDQASISCRSSQRLVHSNGNTYLHWYLQKPGQSPKLLIYRVSNRFPGVPDRFSGSGSGTDFTLKISRVEAEDLGIYFCSQSTHVPYTFGGGTKLEIKR
notes: A single polypeptide made by linking two anti-TRBC1 scFvs, with G4S and (G4S)3 linkers and a poly-histidine tail; also called anti-C1 #3
[2]
  binding result: no binding

B5: anti-CD3 scFv UCHT1.v9 (scFv, V domains shown)
VH: EVQLVESGGGLVQPGGSLRLSCAASGYSFTGYTMNWVRQAPGKGLEWVALINPYKGVSTYNQKFKDRFTISVDKSKNTAYLQMNSLRAEDTAVYYCARSGYYGDSDWYFDVWGQGTLVTVSS
VL: DIQMTQSPSSLSASVGDRVTITCRASQDIRNYLNWYQQKPGKAPKLLIYYTSRLESGVPSRFSGSGSGTDYTLTISSLQPEDFATYYCQQGNTLPWTFGQGTKVEIK
notes: also called αCD3 scFv
[4]
  Kd: 4.7 nM
